Assay results published in the supplement of paper PMC10126150.
± gives the standard deviation of the averaged measurements.

system: ATP; assay: switch fluorescence ratio, 500 uM ATP over buffer (Cy3 cluster intensity, sum of 5 cycles each) (fold (ratio)); higher = stronger signal-on switching upon ATP binding; sequences stand for … in TCGTCGGCAGCGTCAGATGTGTATAAGAGACAGTTTTTTTTTTTTTTTTTTTTTTTTT…TC; conditions: aptamer strand: ATP DNA aptamer (quencher-CACCTGGGGGAGTATTGCGGAGGAAGG + anchor), 100 nM annealed; ATP concentration: 500 uM
Method in brief: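 The fluorescence ratio divides summed target-cycle Cy3 intensity by summed buffer-cycle Cy3 intensity for each cluster and is averaged per switch-domain sequence. Cy3-labelled switching-strand clusters on a modified Illumina MiSeq flow-cell were annealed to 100 nM quencher-labelled ATP aptamer, then imaged in selection buffer and again after 15 min with 500 uM ATP at 22 °C. Five such cycles were run, with NaOH stripping and re-annealing between them, and clusters outside 100-1000 RFU were excluded.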
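Also: ATP exposure 15 min at 22 °C before imaging.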

| Sequence | switch fluorescence ratio |
| --- | --- |
| CATCGAGATG | 1.01 ± 0.014 |
| CATCGAGCAA | 3.77 ± 3.5 |
| CATCGCTGTG | 0.998 ± 0.039 |
| CATCGGGGTC | 1.07 ± 0.021 |
| CATCGTGTGT | 0.972 ± 0.011 |
| CATCTACTGG | 1.01 ± 0.018 |
| CATCTAGGGG | 0.999 ± 0.061 |
| CATGAAACAT | 1.06 ± 0.048 |
| CATGAATGGT | 0.962 ± 0.022 |
| CATGACATTT | 1.06 ± 0.028 |
| CATGACGAAT | 1.03 ± 0.026 |
| CATGAGAAGG | 1.0186 ± 0.001 |
| CATGAGGTTC | 0.974 ± 0.03 |
| CATGAGTAGG | 0.979 ± 0.016 |
| CATGATAGGG | 1.01 ± 0.031 |
| CATGATAGGT | 0.975 ± 0.057 |
| CATGATCCGT | 1.008 ± 0.0093 |
| CATGATCTCT | 0.987 ± 0.071 |
| CATGATGTGT | 1 ± 0.042 |
| CATGATGTTC | 1.02 ± 0.021 |
| CATGATTAAT | 0.962 ± 0.033 |
| CATGATTAGT | 0.951 ± 0.041 |
| CATGCACTAT | 1.08 ± 0.021 |
| CATGCCAGTG | 1.049 ± 0.0013 |
| CATGCGGGGG | 1.01 ± 0.013 |

| Sequence | switch fluorescence ratio |
| --- | --- |
| CATGCGTAAA | 1.238 ± 0.0069 |
| CATGCTTTCC | 1.17 ± 0.26 |
| CATGCTTTCT | 0.9836 ± 0.0079 |
| CATGGCAACC | 1.158 ± 0.0094 |
| CATGGGAGAC | 0.986 ± 0.022 |
| CATGGGCAG | 0.992 ± 0.034 |
| CATGGGCTAG | 0.997 ± 0.057 |
| CATGGGGGAT | 1.01 ± 0.035 |
| CATGGGGGGT | 0.994 ± 0.014 |
| CATGGTCATT | 1 ± 0.019 |
| CATGGTCTCA | 1.017 ± 0.0017 |
| CATGGTGTGG | 1.01 ± 0.031 |
| CATGGTTCGT | 0.975 ± 0.025 |
| CATGGTTGGT | 0.969 ± 0.025 |
| CATGTATTAT | 0.985 ± 0.034 |
| CATGTCACGG | 1.06 ± 0.039 |
| CATGTGCGTG | 1 ± 0.022 |
| CATGTGGGGT | 0.992 ± 0.034 |
| CATGTGTTGT | 0.987 ± 0.014 |
| CATGTTAGGT | 1.01 ± 0.025 |
| CATGTTAGTA | 1.02 ± 0.021 |
| CATGTTCGGG | 0.971 ± 0.012 |
| CATGTTGATG | 1.0056 ± 0.00049 |
| CATGTTGGAG | 0.9924 ± 0.0053 |
| CATGTTGGGT | 1.008 ± 0.007 |

| Sequence | switch fluorescence ratio |
| --- | --- |
| CATGTTTAGG | 0.986 ± 0.017 |
| CATGTTTGGT | 0.987 ± 0.013 |
| CATTAAAGTA | 1.1 ± 0.021 |
| CATTAACGAG | 1.013 ± 0.0062 |
| CATTAACGGG | 1.02 ± 0.013 |
| CATTAAGGGC | 0.962 ± 0.04 |
| CATTAAGTGT | 0.9713 ± 0.0034 |
| CATTAGCTGG | 1.03 ± 0.002 |
| CATTAGGATA | 1.0153 ± 0.00044 |
| CATTAGGATG | 0.9941 ± 0.0021 |
| CATTAGGGGT | 0.978 ± 0.012 |
| CATTATATGT | 1.01 ± 0.046 |
| CATTATTAAA | 0.976 ± 0.025 |
| CATTATTGTT | 0.999 ± 0.033 |
| CATTCGGGTG | 1.11 ± 0.027 |
| CATTCTTCGC | 1.15 ± 0.029 |
| CATTGACCGC | 1.09 ± 0.014 |
| CATTGACTTT | 1.02 ± 0.016 |
| CATTGAGCGG | 1 ± 0.018 |
| CATTGAGGGT | 0.968 ± 0.052 |
| CATTGATTTT | 1.013 ± 0.0022 |
| CATTGCGATC | 2.08 ± 0.3 |
| CATTGGGCGA | 0.982 ± 0.022 |
| CATTGGGGGT | 1.04 ± 0.021 |
| CATTGGGTTT | 0.975 ± 0.052 |

| Sequence | switch fluorescence ratio |
| --- | --- |
| CATTGGTGAG | 0.992 ± 0.032 |
| CATTGGTGGT | 0.989 ± 0.0039 |
| CATTGTAAGA | 0.962 ± 0.043 |
| CATTGTATCG | 1.01 ± 0.011 |
| CATTTACCAT | 1.03 ± 0.014 |
| CATTTAGCTC | 1.07 ± 0.015 |
| CATTTATAAG | 0.977 ± 0.013 |
| CATTTATATT | 0.986 ± 0.032 |
| CATTTCAGTG | 0.988 ± 0.025 |
| CATTTGATCC | 0.978 ± 0.0026 |
| CATTTGGGTA | 1.01 ± 0.014 |
| CATTTGTGGG | 0.993 ± 0.017 |
| CATTTGTGTT | 1.02 ± 0.046 |
| CATTTTATAT | 1.02 ± 0.012 |
| CATTTTGAGC | 0.996 ± 0.014 |
| CATTTTGCGT | 0.972 ± 0.035 |
| CATTTTGGGC | 0.992 ± 0.041 |
| CATTTTTGGA | 1.003 ± 0.0076 |
| CATTTTTTTA | 0.96084 ± 0.00082 |
| CCAAGCCTGT | 1.007 ± 0.0098 |
| CCAAGCGTGC | 1.76 ± 0.64 |
| CCAAGCTGAA | 1.22 ± 0.035 |
| CCAAGGTGGA | 1.1 ± 0.12 |
| CCAAGGTGGG | 1.1 ± 0.016 |
| CCAATAAGGG | 0.994 ± 0.048 |
